Source: patent publication EP4814000A1
Read-outs that look alike come from different tables or passages of the source.

What was measured:
[1] = target: RSV B-003m-P215S-1×GCN4t-C102A-C362S (RSV B); assay: flow cytometry, Expi293F cells, Lipofectamine 2000-mRNA; mRNA RQ2
[2] = target: RSV B-003m-P215S-1×GCN4t-C486D-C489D (RSV B); assay: as above
[3] = target: wild-type RSV B F (RSV B); assay: flow cytometry, Expi293F cells, Lipofectamine 2000-mRNA; row WT-RQ1
003m-P215S-S-3N [4] = assay: flow cytometry, Expi293F cells, mRNA-LNP (RL151)
003m-P215S-ΔF111-S-3N [5] = assay: flow cytometry, Expi293F cells, mRNA-LNP (RL151)
003m-P215S (RSV) [6] = assay: flow cytometry, Expi293F cells, mRNA-LNP (RL151)
003m-P215S-1×GCN4t (RSV) [7] = assay: flow cytometry, Expi293F cells, mRNA-LNP (RL151)
003m-P215S-ΔF111 (RSV) [8] = assay: flow cytometry, Expi293F cells, mRNA-LNP (RL151)
[9] = target: 003m-P215S-ΔF111-1×GCN4t (RSV); assay: flow cytometry, Expi293F cells, mRNA-LNP (RL151)
[10] = target: RSV B-003m-P215S-1×GCN4t-G46S (RSV B); assay: flow cytometry, Expi293F cells, Lipofectamine 2000-mRNA; mRNA RQ3
[11] = target: RSV B-003m-P215S-1×GCN4t-F190S (RSV B); assay: as above
[12] = target: RSV B-003m-P215S-1×GCN4t (RSV B); assay: as above
007m-DS (RSV) = assay: flow cytometry, Expi293F cells transfected with the antigen's mRNA
010m-Cys (RSV) = assay: as above
009m-DS (RSV) = assay: as above
008m-Cys (RSV) = assay: as above
003m-DS (RSV) = assay: as above
009m-Cys-ΔCys (RSV) = assay: as above
008m-Cys-ΔCys (RSV) = assay: as above
009m-Cys (RSV) = assay: as above
DS-Cav1 (RSV) = assay: as above
007m-Cys (RSV) = assay: as above
003m-ΔCys (RSV) = assay: as above
007m-Cys-ΔCys (RSV) = assay: as above
010m-Cys-ΔCys (RSV) = assay: as above
008m-DS (RSV) = assay: as above
010m-DS (RSV) = assay: as above
003M-P215S-S (RSV) = assay: flow cytometry, Expi293F cells, Lipofectamine 2000-mRNA
003m-P215S-S-3N [13] = assay: as above
003M-P215S-L (RSV) = assay: as above
003m-P215S (RSV) [14] = assay: as above
003M-P215S-L-3N (RSV) = assay: as above
003m-P215S-2×GCN4t (RSV) [15] = assay: as above
003m-P215S (RSV) [16] = assay: as above; remark: listed apart in the source
003m-P215S-2×GCN4t (RSV) [17] = assay: as above; remark: listed apart in the source
003m-P215S-1×GCN4t (RSV) [18] = assay: flow cytometry, Expi293F cells, Lipofectamine 2000-mRNA; row 003m-P215S-1×GCN4t-opti5
[19] = target: wild-type RSV B F (RSV B); assay: flow cytometry, Expi293F cells, Lipofectamine 2000-mRNA; row WT-RQ3
003m-P215S-S-3N [20] = assay: flow cytometry, Expi293F cells, Lipofectamine 2000-mRNA; remark: listed apart in the source
003m-P215S-ΔF111-S-3N [21] = assay: as above
003m-P215S (RSV) [22] = assay: as above; remark: listed apart in the source
003m-P215S-1×GCN4t (RSV) [23] = assay: as above
003m-P215S-ΔF111 (RSV) [24] = assay: as above
[25] = target: 003m-P215S-ΔF111-1×GCN4t (RSV); assay: as above

Substance: D25-AF488 (antibody)
- MFI [1]: 15700
- MFI [2]: 8130
- MFI [3]: 132000
- MFI (003m-P215S-S-3N [4]): 6730
- MFI (003m-P215S-ΔF111-S-3N [5]): 44800
- MFI (003m-P215S (RSV) [6]): 16400
- MFI (003m-P215S-1×GCN4t (RSV) [7]): 3880
- MFI (003m-P215S-ΔF111 (RSV) [8]): 37300
- MFI [9]: 682
- MFI [10]: 4220
- MFI [11]: 13100
- MFI [12]: 6190
- MFI (007m-DS (RSV)): 159000
- MFI (010m-Cys (RSV)): 252000
- MFI (009m-DS (RSV)): 154000
- MFI (008m-Cys (RSV)): 196000
- MFI (003m-DS (RSV)): 37100
- MFI (009m-Cys-ΔCys (RSV)): 136000
- MFI (008m-Cys-ΔCys (RSV)): 173000
- MFI (009m-Cys (RSV)): 199000
- MFI (DS-Cav1 (RSV)): 159000
- MFI (007m-Cys (RSV)): 229000
- MFI (003m-ΔCys (RSV)): 16200
- MFI (007m-Cys-ΔCys (RSV)): 369000
- MFI (010m-Cys-ΔCys (RSV)): 136000
- MFI (008m-DS (RSV)): 150000
- MFI (010m-DS (RSV)): 118000
- MFI (003M-P215S-S (RSV)): 8920
- MFI (003m-P215S-S-3N [13]): 48800
- MFI (003M-P215S-L (RSV)): 5820
- MFI (003m-P215S (RSV) [14]): 77200
- MFI (003M-P215S-L-3N (RSV)): 23400
- MFI (003m-P215S-2×GCN4t (RSV) [15]): 2150
- MFI (003m-P215S (RSV) [16]): 270000
- MFI (003m-P215S-2×GCN4t (RSV) [17]): 5120
- MFI (003m-P215S-1×GCN4t (RSV) [18]): 4620
- MFI [19]: 36900
- MFI (003m-P215S-S-3N [20]): 148000
- MFI (003m-P215S-ΔF111-S-3N [21]): 704000
- MFI (003m-P215S (RSV) [22]): 486000
- MFI (003m-P215S-1×GCN4t (RSV) [23]): 8630
- MFI (003m-P215S-ΔF111 (RSV) [24]): 1.02e+06
- MFI [25]: 14700

Substance: AM14-AF488 (antibody)
- MFI [1]: 3940
- MFI [2]: 8080
- MFI [3]: 201000
- MFI (003m-P215S-S-3N [4]): 5920
- MFI (003m-P215S-ΔF111-S-3N [5]): 49100
- MFI (003m-P215S (RSV) [6]): 20000
- MFI (003m-P215S-1×GCN4t (RSV) [7]): 4180
- MFI (003m-P215S-ΔF111 (RSV) [8]): 45200
- MFI [9]: 821
- MFI [10]: 4100
- MFI [11]: 11200
- MFI [12]: 5060
- MFI (007m-DS (RSV)): 144000
- MFI (010m-Cys (RSV)): 333000
- MFI (009m-DS (RSV)): 147000
- MFI (008m-Cys (RSV)): 258000
- MFI (003m-DS (RSV)): 10100
- MFI (009m-Cys-ΔCys (RSV)): 148000
- MFI (008m-Cys-ΔCys (RSV)): 181000
- MFI (009m-Cys (RSV)): 247000
- MFI (DS-Cav1 (RSV)): 122000
- MFI (007m-Cys (RSV)): 610000
- MFI (003m-ΔCys (RSV)): 8380
- MFI (007m-Cys-ΔCys (RSV)): 430000
- MFI (010m-Cys-ΔCys (RSV)): 153000
- MFI (008m-DS (RSV)): 139000
- MFI (010m-DS (RSV)): 107000
- MFI (003M-P215S-S (RSV)): 5620
- MFI (003m-P215S-S-3N [13]): 42400
- MFI (003M-P215S-L (RSV)): 4540
- MFI (003m-P215S (RSV) [14]): 90100
- MFI (003M-P215S-L-3N (RSV)): 17500
- MFI (003m-P215S-2×GCN4t (RSV) [15]): 1890
- MFI (003m-P215S (RSV) [16]): 338000
- MFI (003m-P215S-2×GCN4t (RSV) [17]): 2680
- MFI (003m-P215S-1×GCN4t (RSV) [18]): 2980
- MFI [19]: 55800
- MFI (003m-P215S-S-3N [20]): 127000
- MFI (003m-P215S-ΔF111-S-3N [21]): 1.08e+06
- MFI (003m-P215S (RSV) [22]): 759000
- MFI (003m-P215S-1×GCN4t (RSV) [23]): 5650
- MFI (003m-P215S-ΔF111 (RSV) [24]): 1.52e+06
- MFI [25]: 12500
